Results on six substances are retold here after the supplement of paper PMC5998384.

For series [1], the system named is HeLa Kyoto. The series is described as follows: melting temperature (median over replicates), in situ; higher = more thermally stable.
Series [2] deals with HeLa Kyoto. The experiment in a line: solubility in G1/S (NP-40 vs SDS abundance) (log2 ratio); higher = more soluble. Conditions: cell cycle stage: G1/S.
Series [3] concerns HeLa Kyoto. The series is described as follows: solubility change mitosis vs G1/S (difference of NP-40 vs SDS log2 ratios) (log2 ratio difference); higher = more soluble in mitosis.
The test system of series [4] is HeLa Kyoto. The experiment in a line: thermal stability score vs G1/S (z-score of summed log2 fold changes over temperatures); higher = more thermally stable than in G1/S.
[5] abbreviates: cell cycle stage: early G1 (4.5 h after nocodazole release).
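Wherever melting temperature (median over replicates), in situ is given: HeLa Kyoto cells synchronized by double thymidine or nocodazole block, proteins quantified by TMT10plex mass spectrometry, three independent biological replicates.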
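Wherever solubility change mitosis vs G1/S (difference of NP-40 vs SDS log2 ratios) is given: synchronized HeLa Kyoto cells (double thymidine block for G1/S, nocodazole release for mitosis), protein amounts in NP-40 versus SDS lysates quantified by mass spectrometry, three biological replicates.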
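Wherever solubility in G1/S (NP-40 vs SDS abundance) is given: HeLa Kyoto cells arrested at G1/S by double thymidine block, proteins quantified by TMT10plex mass spectrometry in mild NP-40 versus SDS extracts, three biological replicates.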
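Wherever thermal stability score vs G1/S (z-score of summed log2 fold changes over temperatures) is given: synchronized HeLa Kyoto cells, proteins quantified by TMT10plex mass spectrometry, three biological replicates, mitosis taken 0.5 h after nocodazole release, G1/S directly after double thymidine block.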

Sequence of HERC1 (chain, as listed by the source): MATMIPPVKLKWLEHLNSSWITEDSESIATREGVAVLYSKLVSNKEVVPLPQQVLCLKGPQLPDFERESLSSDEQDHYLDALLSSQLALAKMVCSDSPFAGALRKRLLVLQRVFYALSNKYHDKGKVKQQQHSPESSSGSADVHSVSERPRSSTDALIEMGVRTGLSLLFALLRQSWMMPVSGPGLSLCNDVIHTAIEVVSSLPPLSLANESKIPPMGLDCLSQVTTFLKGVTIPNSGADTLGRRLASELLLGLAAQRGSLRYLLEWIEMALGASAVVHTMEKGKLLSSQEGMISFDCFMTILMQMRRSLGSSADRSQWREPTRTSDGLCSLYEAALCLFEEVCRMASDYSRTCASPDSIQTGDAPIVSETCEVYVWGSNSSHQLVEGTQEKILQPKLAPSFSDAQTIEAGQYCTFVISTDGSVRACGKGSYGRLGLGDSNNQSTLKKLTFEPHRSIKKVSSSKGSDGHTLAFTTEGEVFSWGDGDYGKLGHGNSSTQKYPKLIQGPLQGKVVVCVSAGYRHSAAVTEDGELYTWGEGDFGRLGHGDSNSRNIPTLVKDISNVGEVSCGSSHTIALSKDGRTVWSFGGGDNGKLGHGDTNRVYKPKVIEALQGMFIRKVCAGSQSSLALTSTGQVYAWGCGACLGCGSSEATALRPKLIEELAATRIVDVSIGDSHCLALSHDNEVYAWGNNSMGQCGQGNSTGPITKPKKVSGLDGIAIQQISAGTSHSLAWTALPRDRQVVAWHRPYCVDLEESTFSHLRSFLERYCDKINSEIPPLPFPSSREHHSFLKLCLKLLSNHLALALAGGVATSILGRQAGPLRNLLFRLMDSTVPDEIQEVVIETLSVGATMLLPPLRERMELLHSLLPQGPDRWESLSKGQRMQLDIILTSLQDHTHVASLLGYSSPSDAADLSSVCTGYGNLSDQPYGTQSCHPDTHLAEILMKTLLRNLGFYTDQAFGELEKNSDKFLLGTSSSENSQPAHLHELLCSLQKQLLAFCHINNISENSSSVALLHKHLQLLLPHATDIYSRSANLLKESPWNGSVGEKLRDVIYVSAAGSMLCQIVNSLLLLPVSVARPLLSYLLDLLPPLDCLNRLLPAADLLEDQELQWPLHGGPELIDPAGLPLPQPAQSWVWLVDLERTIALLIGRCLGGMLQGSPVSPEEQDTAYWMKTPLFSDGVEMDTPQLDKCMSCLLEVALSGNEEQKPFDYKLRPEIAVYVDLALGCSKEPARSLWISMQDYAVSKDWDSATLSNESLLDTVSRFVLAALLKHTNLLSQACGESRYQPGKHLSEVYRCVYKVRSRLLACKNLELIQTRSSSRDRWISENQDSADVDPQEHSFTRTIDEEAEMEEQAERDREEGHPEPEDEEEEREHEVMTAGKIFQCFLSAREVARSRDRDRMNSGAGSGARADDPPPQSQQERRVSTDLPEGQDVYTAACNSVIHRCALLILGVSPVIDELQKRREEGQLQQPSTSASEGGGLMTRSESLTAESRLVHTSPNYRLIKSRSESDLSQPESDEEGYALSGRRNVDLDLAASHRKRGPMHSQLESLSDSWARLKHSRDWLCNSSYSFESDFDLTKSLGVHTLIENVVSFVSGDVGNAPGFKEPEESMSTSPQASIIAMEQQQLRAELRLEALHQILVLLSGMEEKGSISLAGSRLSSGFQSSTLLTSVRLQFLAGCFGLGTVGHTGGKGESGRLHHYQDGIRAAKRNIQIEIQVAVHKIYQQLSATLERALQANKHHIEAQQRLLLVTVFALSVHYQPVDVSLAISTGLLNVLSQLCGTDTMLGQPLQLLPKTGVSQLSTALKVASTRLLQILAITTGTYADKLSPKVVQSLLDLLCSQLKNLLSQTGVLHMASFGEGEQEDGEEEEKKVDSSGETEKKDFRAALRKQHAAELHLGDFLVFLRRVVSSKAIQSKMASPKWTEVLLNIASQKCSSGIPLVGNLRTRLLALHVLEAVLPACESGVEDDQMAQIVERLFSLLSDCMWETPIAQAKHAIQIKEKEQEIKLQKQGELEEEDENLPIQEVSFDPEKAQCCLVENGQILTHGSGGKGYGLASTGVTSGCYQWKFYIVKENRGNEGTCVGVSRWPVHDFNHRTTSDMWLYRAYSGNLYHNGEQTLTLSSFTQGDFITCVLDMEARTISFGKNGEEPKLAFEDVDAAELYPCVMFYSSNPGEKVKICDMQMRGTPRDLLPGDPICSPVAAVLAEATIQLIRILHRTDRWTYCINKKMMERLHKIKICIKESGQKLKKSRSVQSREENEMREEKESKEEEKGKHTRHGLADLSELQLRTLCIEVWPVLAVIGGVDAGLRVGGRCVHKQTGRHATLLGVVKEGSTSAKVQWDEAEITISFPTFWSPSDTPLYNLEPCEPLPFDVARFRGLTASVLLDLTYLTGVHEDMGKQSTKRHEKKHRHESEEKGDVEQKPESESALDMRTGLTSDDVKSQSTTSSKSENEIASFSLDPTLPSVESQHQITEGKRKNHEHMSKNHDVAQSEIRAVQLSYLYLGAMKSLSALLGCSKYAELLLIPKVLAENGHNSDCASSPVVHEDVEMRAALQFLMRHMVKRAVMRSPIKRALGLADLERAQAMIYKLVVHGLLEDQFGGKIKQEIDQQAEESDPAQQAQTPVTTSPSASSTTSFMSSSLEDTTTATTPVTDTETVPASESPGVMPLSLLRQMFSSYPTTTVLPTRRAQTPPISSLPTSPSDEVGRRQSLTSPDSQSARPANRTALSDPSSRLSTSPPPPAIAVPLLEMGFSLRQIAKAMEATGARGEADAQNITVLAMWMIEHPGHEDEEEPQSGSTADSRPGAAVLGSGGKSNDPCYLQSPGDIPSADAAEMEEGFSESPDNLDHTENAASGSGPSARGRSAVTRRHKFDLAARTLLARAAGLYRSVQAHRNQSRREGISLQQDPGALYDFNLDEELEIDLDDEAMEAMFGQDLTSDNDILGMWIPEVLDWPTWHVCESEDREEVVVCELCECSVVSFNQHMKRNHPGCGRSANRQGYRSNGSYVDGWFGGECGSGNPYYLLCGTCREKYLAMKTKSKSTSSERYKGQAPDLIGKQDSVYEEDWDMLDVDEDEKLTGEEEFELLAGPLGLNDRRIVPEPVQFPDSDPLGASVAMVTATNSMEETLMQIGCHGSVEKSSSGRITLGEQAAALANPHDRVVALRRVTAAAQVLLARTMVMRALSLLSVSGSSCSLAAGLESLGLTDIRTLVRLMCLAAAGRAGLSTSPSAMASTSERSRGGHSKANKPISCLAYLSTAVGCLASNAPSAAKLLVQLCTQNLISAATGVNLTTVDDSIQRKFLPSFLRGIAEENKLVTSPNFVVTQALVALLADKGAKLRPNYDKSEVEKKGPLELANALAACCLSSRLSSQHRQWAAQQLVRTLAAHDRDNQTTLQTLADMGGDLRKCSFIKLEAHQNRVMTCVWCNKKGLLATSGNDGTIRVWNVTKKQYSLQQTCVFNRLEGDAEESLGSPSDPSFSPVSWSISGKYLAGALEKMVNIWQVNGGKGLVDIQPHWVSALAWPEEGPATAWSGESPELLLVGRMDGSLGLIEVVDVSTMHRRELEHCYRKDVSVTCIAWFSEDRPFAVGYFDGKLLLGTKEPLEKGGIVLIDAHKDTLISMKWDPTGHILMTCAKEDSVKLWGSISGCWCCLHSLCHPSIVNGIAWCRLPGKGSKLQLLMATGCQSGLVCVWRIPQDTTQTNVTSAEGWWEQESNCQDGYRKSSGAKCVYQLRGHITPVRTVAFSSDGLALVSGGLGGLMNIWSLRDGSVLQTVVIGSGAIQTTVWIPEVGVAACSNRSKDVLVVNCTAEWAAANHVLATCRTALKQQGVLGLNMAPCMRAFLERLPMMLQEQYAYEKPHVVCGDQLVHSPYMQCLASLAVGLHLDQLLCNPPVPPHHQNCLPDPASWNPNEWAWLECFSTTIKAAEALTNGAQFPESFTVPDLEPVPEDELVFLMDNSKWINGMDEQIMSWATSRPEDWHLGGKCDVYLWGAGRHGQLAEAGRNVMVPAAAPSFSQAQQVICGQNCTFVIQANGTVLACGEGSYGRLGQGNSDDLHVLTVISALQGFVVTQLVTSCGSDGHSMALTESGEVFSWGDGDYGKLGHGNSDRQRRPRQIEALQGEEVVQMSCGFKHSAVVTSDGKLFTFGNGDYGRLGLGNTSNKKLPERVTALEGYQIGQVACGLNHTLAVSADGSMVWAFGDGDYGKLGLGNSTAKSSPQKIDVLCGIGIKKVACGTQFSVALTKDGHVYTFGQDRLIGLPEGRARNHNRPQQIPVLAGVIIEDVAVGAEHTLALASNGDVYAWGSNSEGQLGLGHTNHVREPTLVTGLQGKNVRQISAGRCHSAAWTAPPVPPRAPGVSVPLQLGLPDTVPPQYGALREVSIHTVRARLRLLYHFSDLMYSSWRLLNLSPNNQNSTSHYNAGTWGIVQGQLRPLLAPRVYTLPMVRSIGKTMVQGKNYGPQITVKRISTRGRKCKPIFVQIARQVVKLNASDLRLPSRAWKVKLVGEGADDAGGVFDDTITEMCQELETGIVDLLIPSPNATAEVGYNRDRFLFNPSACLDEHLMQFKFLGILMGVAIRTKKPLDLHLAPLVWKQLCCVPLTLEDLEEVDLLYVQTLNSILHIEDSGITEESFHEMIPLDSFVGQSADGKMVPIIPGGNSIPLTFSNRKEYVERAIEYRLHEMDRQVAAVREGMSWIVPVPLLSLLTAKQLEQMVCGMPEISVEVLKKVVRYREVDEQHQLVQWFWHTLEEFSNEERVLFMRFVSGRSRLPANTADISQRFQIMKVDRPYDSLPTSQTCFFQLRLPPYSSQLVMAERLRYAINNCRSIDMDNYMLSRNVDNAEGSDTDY

As to “MFSWLKRGGARGQQPEAIRTVTSALKELYRTKLLPLEEHYRFGAFHSPALEDADFDGKPMVLVAGQYSTGKTSFIQYLLEQEVPGSRVGPEPTTDCFVAVMHGDTEGTVPGNALVVDPDKPFRKLNPFGNTFLNRFMCAQLPNQVLESISIIDTPGILSGAKQRVSRGYDFPAVLRWFAERVDLIILLFDAHKLEISDEFSEAIGALRGHEDKIRVVLNKADMVETQQLMRVYGALMWALGKVVGTPEVLRVYIGSFWSQPLLVPDNRRLFELEEQDLFRDIQGLPRHAALRKLNDLVKRARLVRVHAYIISYLKKEMPSVFGKENKKKQLILKLPVIFAKIQLEHHISPGDFPDCQKMQELLMAHDFTKFHSLKPKLLEALDEMLTHDIAKLMPLLRQEELESTEVGVQGGAFEGTHMGPFVERGPDEAMEDGEEGSDDEAEWVVTKDKSKYDEIFYNLAPADGKLSGSKAKTWMVGTKLPNSVLGRIWKLSDVDRDGMLDDEEFALASHLIEAKLEGHGLPANLPRRLVPPSKRRHKGSAE [EHD2]”, the values for the melting temperature in the series with HeLa Kyoto [1] (cell cycle stage: G1/S) and in the series with HeLa Kyoto [1] (cell cycle stage: mitosis) were 48.9 °C and 49.5 °C, respectively. In the series with HeLa Kyoto [2], the “solubility in G1/S (log2)” value is 0.231. For the same substance, in the series on HeLa Kyoto [3], the “solubility change mitosis (log2)” value was -0.164. Further, the results for the thermal stability score in the series on HeLa Kyoto [4] (setting [5]) and with HeLa Kyoto [4] (cell cycle stage: mitosis) were 1.58 and 2.05, respectively.
Take “MEATGTDEVDKLKTKFISAWNNMKYSWVLKTKTYFSRNSPVLLLGKCYHFKYEDEDKTLPAESGCTIEDHVIAGNVEEFRKDFISRIWLTYREEFPQIEGSALTTDCGWGCTLRTGQMLLAQGLILHFLGRAWTWPDALNIENSDSESWTSHTVKKFTASFEASLSGEREFKTPTISLKETIGKYSDDHEMRNEVYHRKIISWFGDSPLALFGLHQLIEYGKKSGKKAGDWYGPAVVAHILRKAVEEARHPDLQGITIYVAQDCTVYNSDVIDKQSASMTSDNADDKAVIILVPVRLGGERTNTDYLEFVKGILSLEYCVGIIGGKPKQSYYFAGFQDDSLIYMDPHYCQSFVDVSIKDFPLETFHCPSPKKMSFRKMDPSCTIGFYCRNVQDFKRASEEITKMLKFSSKEKYPLFTFVNGHSRDYDFTSTTTNEEDLFSEDEKKQLKRFSTEEFVLL [ATG4C]”: the melting temperature in the series on HeLa Kyoto [1] (cell cycle stage: G1/S) amounted to 50.6 °C; in the series with HeLa Kyoto [1] (cell cycle stage: mitosis), 50.3 °C. In the series with HeLa Kyoto [2], the “solubility in G1/S (log2)” value is -1.32. The “solubility change mitosis (log2)” value in the series on HeLa Kyoto [3] worked out at 0.268. Besides, the thermal stability score in the series on HeLa Kyoto [4] (setting [5]) is -0.279; in the series with HeLa Kyoto [4] (cell cycle stage: mitosis), 0.138.
As to HERC1, the values for the melting temperature in the series on HeLa Kyoto [1] (cell cycle stage: G1/S) and in the series with HeLa Kyoto [1] (cell cycle stage: mitosis) were 51.7 °C and 51.3 °C, respectively. Also, the “solubility in G1/S (log2)” value in the series on HeLa Kyoto [2] was -0.169. In addition, the “solubility change mitosis (log2)” value with HeLa Kyoto [3] is -0.126. The results for the thermal stability score in the series on HeLa Kyoto [4] (setting [5]) and with HeLa Kyoto [4] (cell cycle stage: mitosis) were -0.377 and -0.404, respectively.
With “MAPYSLLVTRLQKALGVRQYHVASVLCQRAKVAMSHFEPNEYIHYDLLEKNINIVRKRLNRPLTLSEKIVYGHLDDPASQEIERGKSYLRLRPDRVAMQDATAQMAMLQFISSGLSKVAVPSTIHCDHLIEAQVGGEKDLRRAKDINQEVYNFLATAGAKYGVGFWKPGSGIIHQIILENYAYPGVLLIGTDSHTPNGGGLGGICIGVGGADAVDVMAGIPWELKCPKVIGVKLTGSLSGWSSPKDVILKVAGILTVKGGTGAIVEYHGPGVDSISCTGMATICNMGAEIGATTSVFPYNHRMKKYLSKTGREDIANLADEFKDHLVPDPGCHYDQLIEINLSELKPHINGPFTPDLAHPVAEVGKVAEKEGWPLDIRVGLIGSCTNSSYEDMGRSAAVAKQALAHGLKCKSQFTITPGSEQIRATIERDGYAQILRDLGGIVLANACGPCIGQWDRKDIKKGEKNTIVTSYNRNFTGRNDANPETHAFVTSPEIVTALAIAGTLKFNPETDYLTGTDGKKFRLEAPDADELPKGEFDPGQDTYQHPPKDSSGQHVDVSPTSQRLQLLEPFDKWDGKDLEDLQILIKVKGKCTTDHISAAGPWLKFRGHLDNISNNLLIGAINIENGKANSVRNAVTQEFGPVPDTARYYKKHGIRWVVIGDENYGEGSSREHAALEPRHLGGRAIITKSFARIHETNLKKQGLLPLTFADPADYNKIHPVDKLTIQGLKDFTPGKPLKCIIKHPNGTQETILLNHTFNETQIEWFRAGSALNRMKELQQ [ACO2]”, the melting temperature with HeLa Kyoto [1] (cell cycle stage: G1/S) and in the series on HeLa Kyoto [1] (cell cycle stage: mitosis) was 51.3 °C each time. Further, in the series with HeLa Kyoto [2], the “solubility in G1/S (log2)” value is 0.183. For the same substance, in the series on HeLa Kyoto [3], the “solubility change mitosis (log2)” value was -0.179. The thermal stability score in the series with HeLa Kyoto [4] (setting [5]) turned out to be 0.706; with HeLa Kyoto [4] (cell cycle stage: mitosis) it was 0.579.
For MFSD10, the values for the melting temperature in the series with HeLa Kyoto [1] (cell cycle stage: G1/S) and with HeLa Kyoto [1] (cell cycle stage: mitosis) were 57.2 °C and 57.1 °C, respectively. Moreover, the “solubility in G1/S (log2)” value in the series with HeLa Kyoto [2] is -0.0104. In addition, the “solubility change mitosis (log2)” value in the series with HeLa Kyoto [3] was -0.219. Moreover, the thermal stability score is -2.75 in the series with HeLa Kyoto [4] (setting [5]) and -4.59 with HeLa Kyoto [4] (cell cycle stage: mitosis).
For the substance “MATYTCITCRVAFRDADMQRAHYKTDWHRYNLRRKVASMAPVTAEGFQERVRAQRAVAEEESKGSATYCTVCSKKFASFNAYENHLKSRRHVELEKKAVQAVNRKVEMMNEKNLEKGLGVDSVDKDAMNAAIQQAIKAQPSMSPKKAPPAPAKEARNVVAVGTGGRGTHDRDPSEKPPRLQWFEQQAKKLAKQQEEDSEEEEEDLDGDDWEDIDSDEELECEDTEAMDDVVEQDAEEEEAEEGPPLGAIPITDCLFCSHHSSSLMKNVAHMTKDHSFFIPDIEYLSDIKGLIKYLGEKVGVGKICLWCNEKGKSFYSTEAVQAHMNDKSHCKLFTDGDAALEFADFYDFRSSYPDHKEGEDPNKAEELPSEKNLEYDDETMELILPSGARVGHRSLMRYYKQRFGLSRAVAVAKNRKAVGRVLQQYRALGWTGSTGAALMRERDMQYVQRMKSKWMLKTGMKNNATKQMHFRVQVRF [ZNF622]”, the melting temperature was 53.3 °C in the series on HeLa Kyoto [1] (cell cycle stage: G1/S) and 53.7 °C in the series on HeLa Kyoto [1] (cell cycle stage: mitosis). The “solubility in G1/S (log2)” value with HeLa Kyoto [2] was -0.924. Also, the “solubility change mitosis (log2)” value in the series on HeLa Kyoto [3] is 0.0193. The values for the thermal stability score in the series on HeLa Kyoto [4] (setting [5]) and with HeLa Kyoto [4] (cell cycle stage: mitosis) were -2.54 and -0.435, respectively.
